PMC11904967

Target: pyruvate kinase PKM (PKM2), endogenous in PANC‐1 cells (human (endogenous in PANC-1)) (UniProt P14618)
Assay: western blotting of monomers and dimers; AsPC-1 and PANC-1 cells transduced with HACD2 WT, HACD2 MUT or vector, or with HACD2 knockdown; how dimers were kept on the gel is not told

Chain of pyruvate kinase PKM (PKM2), endogenous in PANC‐1 cells, P14618 1-531 (natural protein; other documents disagree on this pair) (P14618 whole entry): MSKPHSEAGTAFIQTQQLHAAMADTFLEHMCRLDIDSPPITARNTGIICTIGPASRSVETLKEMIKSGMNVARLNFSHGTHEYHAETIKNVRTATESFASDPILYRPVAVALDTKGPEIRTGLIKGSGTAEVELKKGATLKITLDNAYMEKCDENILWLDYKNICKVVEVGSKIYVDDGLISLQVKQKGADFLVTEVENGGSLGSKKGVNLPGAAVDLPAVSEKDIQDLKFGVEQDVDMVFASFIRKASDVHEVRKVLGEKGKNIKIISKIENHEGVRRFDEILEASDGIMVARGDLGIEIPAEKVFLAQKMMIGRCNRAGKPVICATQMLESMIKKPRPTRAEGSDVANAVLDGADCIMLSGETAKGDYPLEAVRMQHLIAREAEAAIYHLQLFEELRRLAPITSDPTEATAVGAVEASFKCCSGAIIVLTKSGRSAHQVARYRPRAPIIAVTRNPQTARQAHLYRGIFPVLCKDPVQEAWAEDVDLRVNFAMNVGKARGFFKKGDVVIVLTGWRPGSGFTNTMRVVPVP

stoichiometry N: 2
Substance: pyruvate kinase PKM (PKM2), endogenous in PANC‐1 cells, P14618 1-531 (natural protein; other documents disagree on this pair)
